Test results as given in patent US20190345207A1 (Pieris, published 2019).

Molecular target: T1, cynomolgus LAG-3 on CHO cells stably transfected with cyLAG-3 (CHO-cyLAG-3) (cynomolgus monkey)
T1 construct: whole, on cells; also called CHO::cynomolgus LAG-3
Assay: FACS on transfected CHO cells
Experimental: To perform the experiment, LAG-3-positive and negative Flp-In CHO cells were incubated with lipocalin muteins, and bound mutein was labeled using fluorescently labeled anti-hTlc antibodies, and then the signal was detected using FACS analysis as described in this example.
5×10⁴ cells per well were pre-incubated for 1 h in ice-cold PBS containing 5% fetal calf serum (PBS-FCS). […] Cells were subsequently washed and analyzed using a intellicyt IQue Flow cytometer (Intellicyt). Fluorescent data generated by lipocalin mutein binding to LAG-3 expressing cells were analyzed by gating for LAG-3 expressing CHO cells and using Forecyt@ software and resulted geometric fluorescent mean were plotted and fitted using Graphpad software.

EC50: 46.8 nM
B1: benchmark anti-LAG-3 antibody (SEQ ID NOs: 5 and 6) (antibody, human IgG4 S228P, kappa, V domains shown)
VH: QVQLQQWGAGLLKPSETLSLTCAVYGGSFSDYYWNWIRQPPGKGLEWIGEINHRGSTNSNPSLKSRVTLSLDTSKNQFSLKLRSVTAADTAVYYCAFGYSDYEYNWFDPWGQGTLVTVSS
VL: EIVLTQSPATLSLSPGERATLSCRASQSISSYLAWYQQKPGQAPRLLIYDASNRATGIPARFSGSGSGTDFTLTISSLEPEDFAVYYCQQRSNWPLTFGQGTNLEIKR
notes: also called benchmark antibody
